Starred links: 1 amine or outer side, 2 acyl side, 3 side chain; linkers in the order of their positions; H or OH if unused. Non-standard residues stand in square brackets, D forms with d. Groups on a side chain read outwards from the residue. No end group written: not given here. *: point of attachment. γGlu = O=C(O)[C@H](CCC(=O)[*:2])N[*:1]; Palmitoyl = CCCCCCCCCCCCCCCC(=O)*; Aib = CC(C)(N)C(=O)O
T1: CRF1R receptor (anti-target) (UniProt P34998 24-415, limits assumed)
T1 sequence (looked up): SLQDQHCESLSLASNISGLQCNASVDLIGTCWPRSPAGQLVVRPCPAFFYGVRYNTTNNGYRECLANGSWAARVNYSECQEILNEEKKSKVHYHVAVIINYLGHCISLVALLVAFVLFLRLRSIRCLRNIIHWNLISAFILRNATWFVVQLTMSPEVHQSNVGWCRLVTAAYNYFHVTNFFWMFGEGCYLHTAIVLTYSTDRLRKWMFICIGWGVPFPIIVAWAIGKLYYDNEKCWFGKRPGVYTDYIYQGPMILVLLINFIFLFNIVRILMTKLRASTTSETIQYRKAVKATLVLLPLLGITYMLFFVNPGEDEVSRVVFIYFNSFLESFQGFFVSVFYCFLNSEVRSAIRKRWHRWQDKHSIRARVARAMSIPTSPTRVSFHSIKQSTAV


Legend:
Assay in all cases: cell-based or functional assay
[1] = biological target: T1, CRF1R receptor (anti-target)
[2] = biological target: human corticotropin-releasing factor 2α (CRF2α receptor) (human), Q13324
[3] = biological target: human corticotropin-releasing factor 2α receptor (CRF2α receptor) (human), Q13324

| Binder | CRF1/CRF2 ratio (of EC50) [1] | CRF1 EC50 (cAMP, HTRF) [1] [nM] | EC50 [nM], 0% HSA (cAMP, HTRF) [2] [nM] | CRF2 EC50 (cAMP, HTRF) [3] [nM] |
| --- | --- | --- | --- | --- |
| IVLSLD[dV]PIGLK([γGlu-Palmitoyl])QILLKQERQKK[Aib]REQAEKNKRILERV-NH2 (N-terminus assumed; SMILES CCCCCCCCCCCCCCCC(=O)N[C@@H](CCC(=O)NCCCC[C@H](NC(=O)[C@H](CC(C)C)NC(=O)CNC(=O)[C@@H](NC(=O)[C@@H]1CCCN1C(=O)[C@H](NC(=O)[C@H](CC(=O)O)NC(=O)[C@H](CC(C)C)NC(=O)[C@H](CO)NC(=O)[C@H](CC(C)C)NC(=O)[C@@H](NC(=O)[C@@H](N)[C@@H](C)CC)C(C)C)C(C)C)[C@@H](C)CC)C(=O)N[C@@H](CCC(N)=O)C(=O)N[C@H](C(=O)N[C@@H](CC(C)C)C(=O)N[C@@H](CC(C)C)C(=O)N[C@@H](CCCCN)C(=O)N[C@@H](CCC(N)=O)C(=O)N[C@@H](CCC(=O)O)C(=O)N[C@@H](CCCNC(=N)N)C(=O)N[C@@H](CCC(N)=O)C(=O)N[C@@H](CCCCN)C(=O)N[C@@H](CCCCN)C(=O)NC(C)(C)C(=O)N[C@@H](CCCNC(=N)N)C(=O)N[C@@H](CCC(=O)O)C(=O)N[C@@H](CCC(N)=O)C(=O)N[C@@H](C)C(=O)N[C@@H](CCC(=O)O)C(=O)N[C@@H](CCCCN)C(=O)N[C@@H](CC(N)=O)C(=O)N[C@@H](CCCCN)C(=O)N[C@@H](CCCNC(=N)N)C(=O)N[C@H](C(=O)N[C@@H](CC(C)C)C(=O)N[C@@H](CCC(=O)O)C(=O)N[C@@H](CCCNC(=N)N)C(=O)N[C@H](C(N)=O)C(C)C)[C@@H](C)CC)[C@@H](C)CC)C(=O)O) [peptide of SEQ ID NO: 218] | 4 | 6.97 | 1.58 | 1.58 |
| IVLSLD[dV]PIGLK([γGlu-Palmitoyl])QILLKQERQKK[Aib]RQQAETNKRILERV-NH2 (N-terminus assumed; SMILES CCCCCCCCCCCCCCCC(=O)N[C@@H](CCC(=O)NCCCC[C@H](NC(=O)[C@H](CC(C)C)NC(=O)CNC(=O)[C@@H](NC(=O)[C@@H]1CCCN1C(=O)[C@H](NC(=O)[C@H](CC(=O)O)NC(=O)[C@H](CC(C)C)NC(=O)[C@H](CO)NC(=O)[C@H](CC(C)C)NC(=O)[C@@H](NC(=O)[C@@H](N)[C@@H](C)CC)C(C)C)C(C)C)[C@@H](C)CC)C(=O)N[C@@H](CCC(N)=O)C(=O)N[C@H](C(=O)N[C@@H](CC(C)C)C(=O)N[C@@H](CC(C)C)C(=O)N[C@@H](CCCCN)C(=O)N[C@@H](CCC(N)=O)C(=O)N[C@@H](CCC(=O)O)C(=O)N[C@@H](CCCNC(=N)N)C(=O)N[C@@H](CCC(N)=O)C(=O)N[C@@H](CCCCN)C(=O)N[C@@H](CCCCN)C(=O)NC(C)(C)C(=O)N[C@@H](CCCNC(=N)N)C(=O)N[C@@H](CCC(N)=O)C(=O)N[C@@H](CCC(N)=O)C(=O)N[C@@H](C)C(=O)N[C@@H](CCC(=O)O)C(=O)N[C@H](C(=O)N[C@@H](CC(N)=O)C(=O)N[C@@H](CCCCN)C(=O)N[C@@H](CCCNC(=N)N)C(=O)N[C@H](C(=O)N[C@@H](CC(C)C)C(=O)N[C@@H](CCC(=O)O)C(=O)N[C@@H](CCCNC(=N)N)C(=O)N[C@H](C(N)=O)C(C)C)[C@@H](C)CC)[C@@H](C)O)[C@@H](C)CC)C(=O)O) [peptide of SEQ ID NO: 220] | 6 | 8.91 | 1.48 | 1.48 |
| IVLSLD[dV]PIKLK([γGlu-Palmitoyl])QILLKQERQKKQRQQAEKNKQILAQV-NH2 (N-terminus assumed; SMILES CCCCCCCCCCCCCCCC(=O)N[C@@H](CCC(=O)NCCCC[C@H](NC(=O)[C@H](CC(C)C)NC(=O)[C@H](CCCCN)NC(=O)[C@@H](NC(=O)[C@@H]1CCCN1C(=O)[C@H](NC(=O)[C@H](CC(=O)O)NC(=O)[C@H](CC(C)C)NC(=O)[C@H](CO)NC(=O)[C@H](CC(C)C)NC(=O)[C@@H](NC(=O)[C@@H](N)[C@@H](C)CC)C(C)C)C(C)C)[C@@H](C)CC)C(=O)N[C@@H](CCC(N)=O)C(=O)N[C@H](C(=O)N[C@@H](CC(C)C)C(=O)N[C@@H](CC(C)C)C(=O)N[C@@H](CCCCN)C(=O)N[C@@H](CCC(N)=O)C(=O)N[C@@H](CCC(=O)O)C(=O)N[C@@H](CCCNC(=N)N)C(=O)N[C@@H](CCC(N)=O)C(=O)N[C@@H](CCCCN)C(=O)N[C@@H](CCCCN)C(=O)N[C@@H](CCC(N)=O)C(=O)N[C@@H](CCCNC(=N)N)C(=O)N[C@@H](CCC(N)=O)C(=O)N[C@@H](CCC(N)=O)C(=O)N[C@@H](C)C(=O)N[C@@H](CCC(=O)O)C(=O)N[C@@H](CCCCN)C(=O)N[C@@H](CC(N)=O)C(=O)N[C@@H](CCCCN)C(=O)N[C@@H](CCC(N)=O)C(=O)N[C@H](C(=O)N[C@@H](CC(C)C)C(=O)N[C@@H](C)C(=O)N[C@@H](CCC(N)=O)C(=O)N[C@H](C(N)=O)C(C)C)[C@@H](C)CC)[C@@H](C)CC)C(=O)O) [peptide of SEQ ID NO: 214] | 1 | 4.27 | 4.15 | 4.15 |
| IVLSLD[dV]PIKLK([γGlu-Palmitoyl])QILLKQERQKKQREQAEKNKQILEQV-NH2 (N-terminus assumed; SMILES CCCCCCCCCCCCCCCC(=O)N[C@@H](CCC(=O)NCCCC[C@H](NC(=O)[C@H](CC(C)C)NC(=O)[C@H](CCCCN)NC(=O)[C@@H](NC(=O)[C@@H]1CCCN1C(=O)[C@H](NC(=O)[C@H](CC(=O)O)NC(=O)[C@H](CC(C)C)NC(=O)[C@H](CO)NC(=O)[C@H](CC(C)C)NC(=O)[C@@H](NC(=O)[C@@H](N)[C@@H](C)CC)C(C)C)C(C)C)[C@@H](C)CC)C(=O)N[C@@H](CCC(N)=O)C(=O)N[C@H](C(=O)N[C@@H](CC(C)C)C(=O)N[C@@H](CC(C)C)C(=O)N[C@@H](CCCCN)C(=O)N[C@@H](CCC(N)=O)C(=O)N[C@@H](CCC(=O)O)C(=O)N[C@@H](CCCNC(=N)N)C(=O)N[C@@H](CCC(N)=O)C(=O)N[C@@H](CCCCN)C(=O)N[C@@H](CCCCN)C(=O)N[C@@H](CCC(N)=O)C(=O)N[C@@H](CCCNC(=N)N)C(=O)N[C@@H](CCC(=O)O)C(=O)N[C@@H](CCC(N)=O)C(=O)N[C@@H](C)C(=O)N[C@@H](CCC(=O)O)C(=O)N[C@@H](CCCCN)C(=O)N[C@@H](CC(N)=O)C(=O)N[C@@H](CCCCN)C(=O)N[C@@H](CCC(N)=O)C(=O)N[C@H](C(=O)N[C@@H](CC(C)C)C(=O)N[C@@H](CCC(=O)O)C(=O)N[C@@H](CCC(N)=O)C(=O)N[C@H](C(N)=O)C(C)C)[C@@H](C)CC)[C@@H](C)CC)C(=O)O) [peptide of SEQ ID NO: 212] | 1 | 0.9 | 1.23 | 1.23 |
| IVLSLD[dV]PIKLK([γGlu-Palmitoyl])QILLKQARQK[Aib]QRAQAEKNKRILERV-NH2 (N-terminus assumed; SMILES CCCCCCCCCCCCCCCC(=O)N[C@@H](CCC(=O)NCCCC[C@H](NC(=O)[C@H](CC(C)C)NC(=O)[C@H](CCCCN)NC(=O)[C@@H](NC(=O)[C@@H]1CCCN1C(=O)[C@H](NC(=O)[C@H](CC(=O)O)NC(=O)[C@H](CC(C)C)NC(=O)[C@H](CO)NC(=O)[C@H](CC(C)C)NC(=O)[C@@H](NC(=O)[C@@H](N)[C@@H](C)CC)C(C)C)C(C)C)[C@@H](C)CC)C(=O)N[C@@H](CCC(N)=O)C(=O)N[C@H](C(=O)N[C@@H](CC(C)C)C(=O)N[C@@H](CC(C)C)C(=O)N[C@@H](CCCCN)C(=O)N[C@@H](CCC(N)=O)C(=O)N[C@@H](C)C(=O)N[C@@H](CCCNC(=N)N)C(=O)N[C@@H](CCC(N)=O)C(=O)N[C@@H](CCCCN)C(=O)NC(C)(C)C(=O)N[C@@H](CCC(N)=O)C(=O)N[C@@H](CCCNC(=N)N)C(=O)N[C@@H](C)C(=O)N[C@@H](CCC(N)=O)C(=O)N[C@@H](C)C(=O)N[C@@H](CCC(=O)O)C(=O)N[C@@H](CCCCN)C(=O)N[C@@H](CC(N)=O)C(=O)N[C@@H](CCCCN)C(=O)N[C@@H](CCCNC(=N)N)C(=O)N[C@H](C(=O)N[C@@H](CC(C)C)C(=O)N[C@@H](CCC(=O)O)C(=O)N[C@@H](CCCNC(=N)N)C(=O)N[C@H](C(N)=O)C(C)C)[C@@H](C)CC)[C@@H](C)CC)C(=O)O) [peptide of SEQ ID NO: 219] | 2 | 13.5 | 5.98 | 5.98 |
